Assay: soluble on expression in E. coli; label from the status in PepcDB or PDB records

| Sequence | soluble on expression in E. coli |
| --- | --- |
| MSSQRWLWRNQHSVQTNIGSREKDLKITKTKKIKKKHERAYELLAEAAYSDPFAALGPFIDDGEGSLRVWMPGANKVELLVNGEPRVALERDGDSGFILKEQRDLHLTHYRLAVDWNGVEQIIDDPYQYHNIYQEYEHLHTPKDM | not soluble |
| MGSDKIHHHHHHMKIGAVLTREQVISARYVHHGLLTPFPDPLVAAQRLAGVQAQILPAAGLALWNRVAGFSADQLEHLLYHERSLVRLWGQRGTLHLYAMTDWPLVYGMQAGQATYWEQEAQRDGWAVDEYEAFIARVGDLLYEHETLGRSDLRRLLPAIDQRHLSGWGGVFAILTRRGLACHAAPRGGEARMTHRLRWRPDLVWEPPDTDTANAEMLRRYLAVFGPVRLVDMTCWRGRTQAEMKRWLALIGEEVVRVSVDGQPAWWLQSYLDRLADLPTPADLPPHLLGRFDPLLLGTRDKSWLIDADVYNRVWRPAGHIEATMLVHGRIAGTWRYDWRGSSIVVTLRPFKPLPPSERIRIESLAAGVAEHFAAPLGDCRWEAVA | not soluble |
| MAVAYEGQLTGHRGWVTSLACPQTPETATKVVSTSRDKTLLSWGPNPDRHSSECSYGLPDRRLEGHSAFVSDVALSNNGNFAVSASWDHSLRLWNLQNGQCQYKFLGHTKDVLSVAFSPDNRQIVSGGRDNALRVWNVKGECMHTLSRGAHTDWVSCVRFSPSLDAPVIVSGGWDNLVKVWDLATGRLVTDLKGHTNYVTSVTVSPDGSLCASSDKDGVARLWDLTKGEALSEMAAGAPINQICFSPNRYWMCAATEKGIRIFDLENKDIIVELAPEHQGSKKIVPECVSIAWSADGSTLYSGYTDNVIRVWGVSENA | not soluble |
| MSWSDIINNNLIGSGNVSKAAILGFDGAVWAKSDNFNISVEEAVAAGKAFTSLDALLGTGLRLEGQKFLVLNADNDRIIGKQGGSGFFIYKTIQAVIISIYEKGLQPEMCSKTTGALADYFRSIKY | not soluble |
| MSNNTKRVGSQTIELKSKPRIIATYSVVGPREGQGPLKEYFDKILQDDCNGCESFEKAESSLMITAIEGVIKKGNVKEEDVDYLFSGDLLNQLTSTNFVAREFKIPFFGVYGACSTMAESLSLSSMIMDGDFAKYAIASTSSHFSSAERQFRFPLEYGCQRKEYSQWTVTGSGAMLLGKSGDYPYVTHVTTGIVKDYGIKDADNMGAAMAPAAVDTIYKHFVDTGRKPEDYDVIATGDLGAVGKKLTEELLKEYGYDISKVYIDCGEKIFDNEKQGTFAGGSGCGCSAVVACGYLYRMLKEKKLKRVLLVSTGALLSSTSALQGESIPGIAHAVAIEYILEHHHHHH | soluble |
| MGSDKIHHHHHHMFRLQFRLFPPLRTAMHILLTALLKCLSLLPLSCLHTLGNRLGHLAFYLLKEDRARIVANMRQAGMNPDPKTVKAVFAETAKGGLELAPAFFRKPEDIETMFKAVHGWEHVQQALDKHEGLLFITPHIGSYDLGGRYISQQLPFPLTAMYKPPKIKAIDKIMQAGRVRGKGKTAPTSIQGVKQIIKALRSGEATIVLPDHVPSPQEGGEGVWVDFFGKPAYTMTLAAKLAHVKGVKTLFFCCERLPGGQGFDLHIRPVQGELNGDKAHDAAVFNRNAEYWIRRFPTQYLFMYNRYKMP | not soluble |
| LRNATQRMFEIDYSRDSFLKDGQPFRYISGSIHYSRVPRFYWKDRLLKMKMAGLNAIQTYVPWNFHEPWPGQYQFSEDHDVEYFLRLAHELGLLVILRPGPYICAEWEMGGLPAWLLEKESILLRSSDPDYLAAVDKWLGVLLPKMKPLLYQNGGPVITVQVENEYGSYFACDFDYLRFLQKRFRHHLGDDVVLFTTDGAHKTFLKCGALQGLYTTVDFGTGSNITDAFLSQRKCEPKGPLINSEFYTGWLDHWGQPHSTIKTEAVASSLYDILARGASVNLYMFIGGTNFAYWNGANSPYAAQPTSYDYDAPLSEAGDLTEKYFALRNIIQKFEKVPEGPIPPSTPKFAYGKVTLEKLKTVGAALDILCPSGPIKSLYPLTFIQVKQHYGFVLYRTTLPQDCSNPAPLSSPLNGVHDRAYVAVDGIPQGVLERNNVITLNITGKAGATLDLLVENMGRVNYGAYINDFKGLVSNLTLSSNILTDWTIFPLDTEDAVRSHLGGWGHRDSGHHDEAWAHNSSNYTLPAFYMGNFSIPSGIPDLPQDTFIQFPGWTKGQVWINGFNLGRYWPARGPQLTLFVPQHILMTSAPNTITVLELEWAPCSSDDPELCAVTFVDRPVIGSSVTYDHPSKPVEKRLMPPPPQKNKDSWLDHV | soluble |
| MSLTASQQPTASQDPTRIDALVIGAGFGGMYAVHKLSGMGLSVQGFEAGGDVGGVWYWNRYPGARCDLMSLDYCYSFSPDIEQEWTWSEQFAAQSEILAYANFVADRLDLRRHFLFETWVTGAAYDEAANVWRVTVDDGRVFEATYCVMASGPLSIPKGVPFDGADDFKGEILLAAKWPHTPVSFEGKRVGLVGTGSTGIQIVPEVAKTAGALTVFQRTPSFTLPMRNVTLEPDYVAELKRNYAGIRQVARNSPLGGVRPQSTRPFFSVTPEQRRALMEDSWARGGLSFLGTFSDLLVNPEANEQVAEFVRSKISEVVTDPVTAEKLKPRGYPIFARRPCLDTHYYETFNLPHVKLHDCLESPIVKITPAGLLTETGEVELDVLIFATGYDGLTGALLNFDVVGRGGLQLRDKWRDGAKSHLGLMIASFPNLFLVCGPNGPAALANIITLDQQNIDWIADAITHMRQEGLATIEPTEGAEQGWMDMVYGMAELTLVSKANTWYVGGNISGKPRGLSMYTGGFQRYSEACRLAAEKGYEDFVFEKAATKQGARSEGHHHHHH | soluble |
| MGSDKIHHHHHHMPINSYENYVLSWRPVKERLTRPYYQSLVQQLEADILSGALQKNVKLPSQRELADYLDLNFTTIGQAYKHAMEKGLLYTNIGCGTFVSPNAFHSITISTNQVADHLIDLGLVSSFDMCNQRILPFIESVSKNAALNSLLNYRDPLGTHFQRATAAEWLQTQGVRTNAEEVAIVSGVQNGLAVTLAAAFSPGQRIAVDRYTYSNFIELAQLYHLEIVPIGYDSEGMDPEHLLQECKKKKIHGIFLMPACNNPIGFQMSSARRMTLAEIIQQEHLWVIEDDIHSFLTTYAQQAVLPTFQELLPQQTIYLAGMTKFVCTGLRIAYLVFPPLLRQEIERAIFNINVKTSGFDAEIVTQVLRSPVAKELVIEKLALTKQANDLFDTIFGLARPSNPLPYYRTIPLSTEKTAPQIEQEFLQNGVRLFHSSRFTVQNQPDAFLRISLASNQLEVLAKGLTIIQELLPTLNEKKGHSL | not soluble |
| MGSDKIHHHHHHMMQALKIDEEIWQMFPEARFEVLVVKGINNQSKADEYYQELLDRAIEKSQKYIANDVFRDNPVVSEWRTAFTKFKKKKGARASIEALLKRVSQGKSLSPINPLVDIYNSISLEYGVPCGGEDLQKMDGTMHLGVAKGGESFRPLGSDEDEPALPGEVIYYDATGAICRCFNWREAQRTMLTEDTTDAVMVIEAINADQAQRAKSAIEKLKELVESKLNATGEHFTLQAQ | not soluble |
| GAMGSEEKLREVSSQDPVTGLYNRSHFLDLMDAAVQQAVTARKPSTLAYIHLNGYPSLQADHGLSGIDLLLGQLAGLMREQFGEEADLARFGDSIFAALFKGKTPEQAQAALQRLLKKVENHLFELNGRSAQATLSIGVAGLDEKTAKAQDVMNRAHRCADDAARKGGSQIKQYNPAEELAAAAQRGDVIAILQQALETNSFRLLFQPVISLRGDSHENYEVLLRLLNPQGQEVPPAEFLHAAKEAGLAEKIDRWVILNSIKLLAEHRAKGHQTKLFVHLSSASLQDPGLLPWLGVALKAARLPPESLVFQISEADATSYLKQAKQLTQGLATLHCQAAISQFGCSLNPFNALKHLTVQFIKIDGSFVQDLNQVENQEILKGLIAELHEQQKLSIVPFVESASVLATLWQAGATYIQGYYLQGPSQAMDYDFSSGDE | soluble |
| MTLYPFPFTTKKQDAESMVDLFSLIKDYLVDQEDGIRHLITWFLNLVMEEEALLQVGAQRYERTDSRKASRNGYKPRTLLTKYGELELLKPQFREFPFETQVFEKYSRVEQAILSAVAESYLQGVSTRRVDKVMTALGVEGISASSVSRITKELDEKVSEFLSKPIEHEIPYLFIDATYLKVRDGLHYENKALFIVSGVRDDGFREILGARLADSEDSLFWQDLFEDLKERGLRGVKLIVSDGHKGIQKAVRESFIGSSWQMCHVHLIRQALKKVQKKKQKEVADKIKEALVDRHKYNDLIRELDKMEYKSAADTLENFQYDVMNYMQFPQSHWRKIRTTNMMERTNKEIKRRTKVVGAFPNQESVLRLVVSILIDINEDWITGNRYIVMEQ | not soluble |
| MGSDKIHHHHHHMYIEEIKRVLSDQRDVLEEKMSRKLVERDVPNLLKYLEVPNALAILGVRRSGKSTLSLLLLKRKKFAYVNFDDERFYNLNIGDLNKVLQAIYELYGVDVDYIVLDEIHNVKGWELFVSRLRDVKKLIITGSNSKMLSGELATYLTGRHSDYILFPFSFQEYLKYKEVKVEYFSTRVISTLKNELEKYTEVGGFPEALMLGKEQVNVIYNDILFKDIVSRYKIREIEKFREFARTVISYYSNEISLSSIAKILGLNKRTVEKWASGLREAYLTFFIPRYGEKLKQRLTYNKKVYVVDVGIVSNLAIKGKDKGRIIENLVAIKLLRELQGEEKLYYMRNNYEVDFYDEKNSRLIQVTYTSDKIENREIRGLIEGYRLTKAKKLLIITWDLEEKIQVEGVNIEVLPLYRFLLE | not soluble |
| MYDFVIIGGGIIGMSTAMQLIDVYPDARIALLEKESAPACHQTGHNSGVIHAGVYYTPGSLKAQFCLAGNRATKAFCDQNGIRYDNCGKMLVATSDLEMERMRALWERTAANGIEREWLNADELREREPNITGLGGIFVPSSGIVSYRDVTAAMAKIFQSRGGEIIYNAEVSGLNEHKNGVVIRTRQGGEYEASTLISCSGLMADRLVKMLGLEPGFIICPFRGEYFRLAPEHNQIVNHLIYPIPDPAMPFLGVHLTRMIDGSVTVGPNAVLAFKREGYRKRDFSFSDTLEILGSSGIRRVLQNHLRSGLGEMKNSLCKSGYLRLVQKYCPRLSLSDLQPWPAGVRAQAVSPDGKLIDDFLFVTTPRTIHTCNAPSPAATSAIPIGAHIVSKVQTLLASQSNPGRTLRAARSVDALHAAFNQ | not soluble |
| MGHHHHHHSHMAERETETSNSESKQDKAASSKEKNGCNANSFEGSSTTKSEESITVSDKENETCLADQETGSKNIVSCDSNIGADKVEKKKQIQHVCQEMELKMCQSSENIILSDQIKDHNSSEARFSSKNIKDLRLASDNVSIDQFLRKRHEPESVSSDVSEQGSIHLEPLTPSEVLEYEATEILQKGSGDPSAKTDEVVSDQTDDIPGGNNPSTTEATVDLEDEKERS | soluble |
| MGDPVEGKGGPQPRGGKKKDADDEKNAWEEGDFIDEKELKGALQLGVLKTADSVALRAGERNGLDMVVEEDVVSQVGALVWDTVAQDWADDLARFVAHAGRQRVNMDDISLLTRRNPDLLRAACELAGVDCPQETSGGTKGKPRKRKKDDVTVAPMLRAAPSAPNSQNAPLLAPIQEEDDENDDDDEITILDDQILHTPQQKSYSKKAKFSEEEAPSSRKRISTSTPKTTAERTLKFPDEITPIRQPNDLQEIVVFNRANLSAIEEEEQQDSFDAFGTTGGNDSSSKTITNTSSLLRQAEEHRSSIVEPTKDRIEKERLDRLVPDDEEFENASVDSFDNFNAEPDPAPAPALAPVPEKRTSVFSKKICSFDFDDDDGDDSFDEPVVVVAEVPKLPVQQQKTPKASGSESKKKPEKRPESSTPSVFSKKNKTIQLDDHDSFDDFDFGI | not soluble |
| MRTLFYSQLMYEAAKRQPHPHRCADGRTIADLSAQDLKKLNIAQLFFVAGRESEASYGDAYHRYHLYGAKQFEEYARKHLTHLFSEKEIVLYSRCIEDRIGDRFDETAEGYLIHLSHMIDLMRCKSPVEVFIGHSRGVSGIVPTLIQLFGREDGLDIMHYARSLFAATGEAVPYISSSEWPHLGIESDRVERALKIVGPLEVEGQEADAKKTAQAGFSVDGCYGALVKVDTPDWYHQVKEKEDYDVDEVIALPPQITIREEPPKANESFLLSLLRHVFWCCPSNQKRDDENTDVLEKKAQL | not soluble |

— the DeepSol protein solubility set
